From a protein production outcome set (Wang et al. 2014)

Assay: label from the status in PepcDB records

Row | Sequence | protein production
1 | MNEIILITGAYGMVGQNTALYFKKNKPDVTLLTPKKSELCLLDKDNVQAYLKEYKPTGIIHCAGRVGGIVANMNDLSTYMVENLLMGLYLFSSALDSGVKKAINLASSCAYPKFAPNPLKESDLLNGSLEPTNEGYALAKLSVMKYCEYVSAEKGVFYKTLVPCNLYGEFDKFEEKIAHMIPGLIARMHTAKLKNEKEFAMWGDGTARREYLNAKDLARFISLAYENIASIPSVMNVGSGVDYSIEEYYEKVAQVLDYKGVFVKDLSKPVGMQQKLMDISKQRALKWELEIPLEQGIKEAYEYYLKLLEV | failed
2 | MELKDYYAIMGVKPTDDLKTIKTAYRRLARKYHPDVSKEPDAEARFKEVAEAWEVLSDEQRRAEYDQMWQHRNDPQFNRQFHHGDGQSFNAEDFDDIFSSIFGQHARQSRQRPATRGHDIEIEVAVFLEETLTEHKRTISYNLPVYNAFGMIEQEIPKTLNVKIPAGVGNGQRIRLKGQGTPGENGGPNGDLWLVIHIAPHPLFDIVGQDLEIVVPVSPWEAALGAKVTVPTLKESILLTIPPGSQAGQRLRVKGKGLVSKKQTGDLYAVLKIVMPPKPDENTAALWQQLADAQSSFDPRKDWGKA | failed
3 | MKPALVVVDMVNEFIHGRLATPEAMKTVGPARKVIETFRRSGLPVVYVNDSHYPDDPEIRIWGRHSMKGDDGSEVIDEIRPSAGDYVLEKHAYSGFYGTNLDMILRANGIDTVVLIGLDADICVRHTAADALYRNYRIIVVEDAVAARIDPNWKDYFTRVYGATVKRSDEIEGMLQEDQIET | not failed
4 | MTFEIVFVLLSLLGMMAALIADKMRPGMVLFSVVVLFLCVGILTPKEMLEGFSNKGMITVALLFLVSEGIRQSGTLGQVIKKLLPQGKTTVFKAQLRILPSVAFISAFLNNTPVVVIFAPIIKHWAKSVKLPATKFLIPLSYVTILGGICTLIGTSTNLVVHGMILEAGYEGFTMFELGKVGIFIAIAGIIYLFIFSKRLLPDARPDTAVPDEEVEEGEKLHRVEAVLGARFPGINKKLSDFNFQRHYGAEVKEIKTRNGQRYVDHLEDVVLREGDTLVVMADDTFIPTWGESSVFVLLTNGNDPDTSGKKKRWLALILLVLMIVGATVGELPATKEMFPDIKLDMFFFVCITTIIMAWTNIFPARKYTKYISWDILITIACAFAISKAMVNSGVADCVAGFIIGLSDDYGPHVLLAILFVITNLFTELITNNAAAALAFPLALSISAQLGVSPTPFFVVICMAASASFSTPIGYQTNLIVQGIGNYKFTDFVRIGLPLNIITFLISVILIPLIWNF | not failed
5 | MKLTIIRLQHFSDQDRIDLGKIWPSQDLSTLTLDENHRLYAAHFNERLLGAVRVTLRGVEGELSDLCVREVTRRRGVGQYLVEETLRDNPAINSWRVADHGVEDRGVMAAFMQALGFSAQQNGWEKH | failed
6 | MCRSGSRCCPPIKLRVACVVAASILTARAGTYAIAACYVAALRVMDQRIAMSLQVLGAGLGRTGTLSLKFALEHLGFGPCYHATEVAANMRTALPLWNAAERGAADWSAIFAGYRSSTDHPGCYYWRQLIEVYPQAKVVLTVRDPDSWFESVTQTILMPGRKSTFVGPEGETFSTFLKQQMGGRSQDRAFMVDYFNRWNQAVIDTVPADRLLVFSARQGWAPLCSFLGVPVPHKPYPHLHARPRLRWFTRGLRLPDDVAARERHVREYLEYLREDLFG | failed
7 | MMDSVKNASENISRRLSRTWDHISDGWRELVHHGSDALTHFVHRKGEEDKGQEAAASTPAFPRWSILAGDMEETDREIVVRIEVPGMEKKDFEISIEGKTLSLRGEKRFERDTNDSKYHVMERAYGVFQRTLPLPVEVNEDKAEADYKNGVLTVRLPKLNVEKRRFISIS | failed
8 | MSSIGYSRRFRLFRRGEVTVLEVMAGQKAYPDTLRYLLVPEGRPQPSGFVGYTVIRTPVKRIAVFSTTHIGFLDMLGRSDGIIGVSRPEFVNTPAVRSRIRSGAIKAIGMPFSPDVEALLNLEPDLVIAPALPAARKTDYQALVQAGIPVLVVAEWLEPSPLGRAEWIKLFGALVGKEKLARERFAAIESSYLKIAALSRNLPNRPTVLTGLPVKDAWYVPTGGSYVAAMLRDAGASYHWRDLPGTGSVPLTIEAVWPVALEAEYWLNTGTVSTLDELLAVDSRFGQMRSVRERRVWNNNRLVNAAGGNAYWESGVVRPDLILKDLVMILHPGLLRAHGIGEGELTFFQEVKLEHHHHHH | not failed
9 | MSGSKTSAEKKESETEKSSDIAQVKIKDVSYTLPSKYDKSTSDDQLVLKVNVAVKNTGKDPLNVDSMDFTLYQGDTKMSDTDPEDYSEKLQGSTINADKSVEGNLFFVVDKGKQYELNYTPESYGDKKPKSVTFKIDGKDKKILATADKLQDSAKALSAYVDVLLFGKDNADFEKITGANKNEIVNDFNESAKDGYLSASGLSSTYADSKALDNIVNGIKEGLSKNSSIQAKTTSISKDEAIVEATVKPVDASSLSDRIEDKVKDYYSKNSSASYEEAVKYALQVYPEEFKKLGPASSEKTVEVKMKKNDIDQWQLDMDDYRAAELVEAFIKELEHHHHHH | not failed
10 | YAYSASLRVRQLGKPFMDEFSRRTNTTVSLTCRDRLSMIHVDSSRPPEVASLRMEPGLRLPLATSAAGRAYLAATPKIERDHLLGEVAKKLGDEWPALEKSLEDSFREYEEFGFCLSLGEWDRNVNGAGVPLRLADGSIMALTCGAPSFQLSSEKLESSLAHQLVMLARDLESLGV | failed
11 | MARHLITSALPYINGIKHLGNMVGSMLPADVYSRYLRQRGHDVLYICATDEHGTPAELAAKERGLPVDEFCAQAHDAQKAVYDGFELAFDYFGRSSSEQNREITQHFARRLNENGFIEERAIRQVYSPADGRFLPDRYVEGTCPHCGYDKARGDQCENCTRVLDPTDLINPRSAISGSTDLEVRETKHLFLLQSKLQHEVEEWVARHEEEWPQLASSIARKWLNEGLHDRAITRDLDWGVPVPADTWPELAAEGKVFYVWFDAPIEYIGATKEWSDLDPENRDWKSWWYDADSGENPVRYTEFMAKDNVPFHTVMFPATELGVREPWKKVDYVKAFNWLTYYGGKFSTSQKRGVFTDHALEILPADYWRYFLIANAPESDDSSFTWEHFTATVNKDLADTLGNFVNRVLSFSKKRFGEEVPAGAPAGESETKLGEEIAALLAEYESHMETLQFRKAAAALRALWSAGNSYLEEKAPWLEIKTNPEGAALTLRTAMNLIHLYSVVSEPFIPASSKAMRSAFALSEDTATWVTQDEAKSLDSVPAGTPFTVPPVLFAKITDEDLESYKERFGGAPE | failed
12 | MPSLPDRRRWLLDGARDTVPMMVGAAPFGLIFGTLAIAAGLSPAATAAMSLLVFAGSSQFIAVSLVSAGAALPVIWLTTFVVNLRHALYSATLLPYARPWPLAWRWPLAFWLTDETFAVVEHRFRSLGAEGGQWYWLGSSLSMYLNWQLWTLAGVALGRSVPGLDRLGLDFAMVATFAAIVAPQLKKRPTLAAALAAGAVALLARGLPYKLDLMLAALAGVAAGMMVERGQKREAA | failed
13 | MTLMCSIAGIYLAKLPYANIIGALVLALLLGILMQLAPEKMRKEASSGMSFISNKFLRLGIILLGFRLDLEKLAAAGVKTILVAALAVAGTITLTYWLSRKFGAEDELAFLSACGCGVCGAAAVMGVSPQITAASEERKRENEVLAVAVVCVMGTVFTLLEIGLKPVLGLTDSQFGIVAGGSLHEIAHAVASGGAFGNISLDSALIMKLSRVILLAPVALIIGYLYQRRTAKVSTIDSTTKTGKLPIPWFLGGFILTSVLGTYLPFSTSLLDALVQVAYIFLGMAMAALGISVNFKVIFKRGGAVFGAAAISSTCLLIFMIIMSKLFF | failed
14 | MPNNETEASMRNTLFPTLKWSLLVLMTSLLTACGFHLRGDYDIPQELSRMSLTSYDQYSTFTRMVHRQLRLNKIDLQAPAEDLPNLHLLSESTGERTLSLYQNTRAAEIELTFVASYRVTVPELGSRTFTTSVTRSYLDNPLTALAKSVERDMIEDEMRKLAASQIVRQMARLKADFARKTLDDESIEGKGITDYRVDTQEVANPVSTEGSSELEHHHHHH | not failed
15 | MAASSSARVAAATAPTASPTSAAPAAPHDGEDNVAADAPYRVLIVEDDRSQALFAQSVLHGAGMHAQVEMTAASVPQAIQDYHPDLILMDLHMPELDGIRLTTLIRQQPGQQLLPIVFLTGDPDPERQFEVLDSGADDFLTKPIRPRHLIAAVSNRIRRARQQALQQAGEQVSVRSNPETGLPTRGHVMDLLADALERKQSGGLFFIEIASALGLRERYGYAAYERLMTQAGHRLASAAQPYPLARLNDNSFLLLAVDMPEASLEQQALEIRQRLSANAFPVREEESVHVRCAIGVAPLGLGFDDTGSALEAVERTALQARLRSDGVQTYLAPSQAEQQEQLRLVEGQLELAYQPIVAVAGGDTAQYQVLLRLRQADGTLLSAGQVIPAAEAAGRIADLDQQVMDHALGLLHLYQHASPPLRLFVSQSPRTLARDAFADWLLKALVERGVAGQSLIVDLRLDDALIHAVTVQQFCAKLMPAGVQFCLSQFEPGDEANALLAQLPLSFVRMANRFADAHGNAAVRDELRGVIDIAHQRGLLIIGQRIEDPQAAAAMWMSGVDFIQGNLVQTVGKELDFDFTSAVL | failed
16 | MKIEEVRFGLVKIDGKEFDHDIVIYPSGRIERRMKEISKKKHGTSHKLDPEELEKYLVEDFDVLLVGTGIYGMLSLLPESKKLVEDKEVIEKPTKEALKLLEELWGKKRILAIIHVTC | not failed
17 | MFSLSFPSSSSALLPSLVAFDSSRRLSLQPKKLNRLQSHLFSPQHLSFSQSNVSRYRAFCVSSSSPPEGTVSVVDFHEKDWSFLESMEIDSTEHTQKIERIIKAGELSESSRVLVSISSETFVDRLVESSPSQLLLIVHDSLFTLACIKEKYDKVKCWQGEMIYVPEKWSPLDAVFLYFLPALPFDLDELFKTLSQRCSSGARVVISHPQGRLGLEQQRKEFSDVVVSDLPDESTLSNVAEKHSFELTQFVDEQGLYLAVLKSSKQ | failed
18 | MLTKLGIKGRELLLTILPASLMAAMLGGYFTWMQLSELQSQLLLRGEMIAQDLAPLSASALGRKDKVLLSRIATQTLEQPDVRAVSFLDVDRSPLAHAGPTMISPTPIGNSSQLLNSTGTDATRYLLPVFGNQRHLTSPIIPAEADTLMGWVDVEISHNGTLLRGYRSLFASLLLIFTGLAITAVVAVRLSRTINGPMSQIKQAVSQLKDGNLETRLPPLGSRELDELASGINRMAATLQNAQEELQMSIDQATEDVRQNLETIEIQNIELDLARKEALEASRIKSEFLANMSHEIRTPLNGILGFTHLLQKSELTPRQFDYLATIEKSADNLLSIINEILDFSKIEAGKLVLDNIPFNLRDLLQDTLTILAPAAHAKHLELVSLVYRDTPLALSGDPLRLRQILTNLVSNAIKFTREGTIVARAMLEDETEEHAQLRISVQDTGIGLSSQDVRALFQAFSQADNSLSRQPGGTGLGLVISKRLIEQMGGEIGVDSTPGEGSEFWISLKLPKAREDKEESLNLPLEGLRAAVLEHHDLARQALEHQLEDCGLHTVVFTNLENLLNGVTAAHETPAAIDLAVLGVTTLEISPERLRQHIWDLENLNCKVMVLCPTTEYALFQLAVHDVYTQLQAKPACTRKLQKALSELIAPRAIRADIAPPLSSRAPRVLCVDDNPANLLLVQTLLEDMGAEVMAVEGGYAAVNAVQQEAFDLVLMDVQMPGMDGRQATEAIRAWEAERGQSSLPIVALTAHAMANEKRSLLQSGMDDYLTKPISERQLAQVVLKWSGLALRNPAPERQNESLEAHVGPLVLDPEEGLRLAAGKADLAADMLAMLLASLDADREAIRVARASQDVQALIERIHRLHGATRYCGVPQLRTACQRAETLLKQDAPHTGDALDDLDKAIVRLETEARVTA | failed
19 | MPGHVPPDLAVIEVTERRTRRSPAGYRPRMSEVVQVGAWGLLAGSALLLGAAIGFGVRVSQKVIATVMAFGAGVLISAVSYELVGEAYEQAGLAPAAIGTVIGAAAYTLGNLWLARRGARHRKRSGHHTAQAQPSEAQQGGSGLALAFGALLDGVPESAVIGVSLLDGGTVSTVTVAAVFISNVPEGLSSSAGMKRAGRGTTYVFGVWGAIAATSTLAAVLGYTVVGAFSPAVIAAVTAVAAGAILAMIADTMIPEAFEDAHLAIGLVTVSGFLVSFALSHV | failed
20 | KLYGSIFTGASKFRCKDCSAAYDTLVELTVHMNETGHYRDDNHETDNNNPKRWSKPRKRSLLEMEGKEDAQKVLKCMYCGHSFESLQDLSVHMIKTKHYQKV | not failed
